In patent publication US20240270857A1 (CHIA TAI TIANQING PHARMACEUTICAL GROUP, published 2024):

Columns and labels:
[1] = target: T1, IL-36R naturally expressed on OVCAR8 cells and on normal human epidermal keratinocytes (NHK cells) (human, UniProt Q9HB29 20-575); experiment: cell-based or functional assay
T1 sequence (looked up): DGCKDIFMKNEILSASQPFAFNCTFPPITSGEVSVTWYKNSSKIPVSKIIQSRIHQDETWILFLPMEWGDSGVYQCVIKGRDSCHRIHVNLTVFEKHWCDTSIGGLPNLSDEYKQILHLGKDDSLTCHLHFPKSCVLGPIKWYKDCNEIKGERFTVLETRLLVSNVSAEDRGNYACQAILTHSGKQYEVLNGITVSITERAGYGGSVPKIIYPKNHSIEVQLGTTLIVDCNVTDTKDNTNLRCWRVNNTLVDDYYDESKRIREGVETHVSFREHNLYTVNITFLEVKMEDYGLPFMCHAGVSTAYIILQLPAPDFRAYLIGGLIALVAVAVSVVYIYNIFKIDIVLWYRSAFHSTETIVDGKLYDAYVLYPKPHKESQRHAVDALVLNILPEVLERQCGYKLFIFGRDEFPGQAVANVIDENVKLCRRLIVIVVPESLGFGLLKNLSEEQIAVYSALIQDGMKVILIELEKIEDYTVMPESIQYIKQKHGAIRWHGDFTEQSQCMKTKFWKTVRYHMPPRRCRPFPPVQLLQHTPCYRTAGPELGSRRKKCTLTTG

[2] = target: T2, Human IL-1Rrp2/IL-1R6 protein, His Tag (ACROBiosystems, IL2-H52H6) (human, UniProt Q9HB29 20-335); experiment: BLI (ForteBio Octet), antibody on ProA sensor, 1:1 model
T2 construct: Bought protein; the soluble protein is likely only the extracellular part; also called hIL-36R; human IL36R antigen; not shown: His tag
T2 sequence: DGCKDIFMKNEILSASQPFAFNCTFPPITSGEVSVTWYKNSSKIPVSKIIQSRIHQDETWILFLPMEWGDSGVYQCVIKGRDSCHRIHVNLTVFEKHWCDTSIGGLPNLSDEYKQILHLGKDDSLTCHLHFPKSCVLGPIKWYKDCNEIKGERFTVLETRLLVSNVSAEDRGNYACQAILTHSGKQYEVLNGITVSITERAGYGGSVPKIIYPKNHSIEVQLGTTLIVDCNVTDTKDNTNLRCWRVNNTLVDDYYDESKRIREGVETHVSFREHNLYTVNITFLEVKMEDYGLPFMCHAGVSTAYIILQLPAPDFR
Method: The affinity of anti-IL-36R antibodies to CynoIL36R-ECD mFc and human IL-1Rrp2/IL-IR6 protein, His Tag (ACROBiosystems, IL2-H52H6) was measured by a ForteBio molecular interaction instrument. […] And then the biosensor was used to bind CynoIL36R-ECD mFc or human IL-1Rrp2/IL-1R6 protein, His Tag which was diluted by a gradient (the initial concentration was 200 nM, 2-fold gradient dilution), the response signals were detected in real time using a Fortebio molecular interaction instrument (SARTORIUS, octet red 96e), and association and dissociation curves were obtained. After the completion of dissociation in each cycle, the biosensor was regenerated for the next capture; the procedure was repeated until the affinity of the different anti-IL-36R antibodies for IL-36R was determined. The resulting data were analyzed by Fortebio Data Analysis 11.0 software in a 1:1 (Langmuir) binding model to determine kₐ (kₒₙ) and kd (koff) values, and the dissociation constant KD was calculated by KD=kd/kₐ. The detection method essentially followed the manufacturer's recommendations, and more information could be found at www.fortebio.com.
Affinity, binding and blocking assays for humanized antibodies hz72C1-1.1, hz72C1-1.2, hz72C1-1.3, hz72C1-2.1, hz72C1-2.2 and hz72C1-2.3 as well as hz84C4-1.1, hz84C4-1.2, hz84C4-1.3, hz84C4-1.4, hz84C4-1.5, hz84C4-2.1, hz84C4-2.2, hz84C4-2.3, hz84C4-2.4 and hz84C4-2.5 were performed according to the methods of Example 4, Example 5. Example 6, Example 7 and Example 8.

B1: hz72C1-1.2 (antibody, human IgG4 S228P, kappa)
heavy: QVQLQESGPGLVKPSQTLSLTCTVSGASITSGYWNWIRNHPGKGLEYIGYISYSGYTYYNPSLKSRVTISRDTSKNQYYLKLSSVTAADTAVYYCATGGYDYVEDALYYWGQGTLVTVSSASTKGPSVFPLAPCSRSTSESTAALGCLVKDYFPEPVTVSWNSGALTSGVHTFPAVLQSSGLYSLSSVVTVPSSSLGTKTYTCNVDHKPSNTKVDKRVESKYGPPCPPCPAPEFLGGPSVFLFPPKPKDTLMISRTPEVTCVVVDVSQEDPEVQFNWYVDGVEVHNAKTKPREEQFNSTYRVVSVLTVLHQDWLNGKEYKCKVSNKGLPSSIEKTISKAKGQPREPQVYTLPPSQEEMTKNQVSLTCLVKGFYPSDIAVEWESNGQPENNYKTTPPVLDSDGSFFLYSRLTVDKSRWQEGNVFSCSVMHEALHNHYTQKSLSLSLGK
light: DIQMTQSPSSLSASVGDRVTITCRASSNVRYMYWYQQKPGKAPKLWIYLTSNLASGVPSRFSGSGSGTSYTLTISSLQPEDFATYYCQQFTTSPYTFGQGTKLEIKRTVAAPSVFIFPPSDEQLKSGTASVVCLLNNFYPREAKVQWKVDNALQSGNSQESVTEQDSKDSTYSLSSTLTLSKADYEKHKVYACEVTHQGLSSPVTKSFNRGEC
notes: Humanized, human IgG4 / kappa
Q: What does the source list for B1?
A: IC50 (M); hIL36α; IL-8 production [1]: 1.19e-10 M; IC50 (M); hIL36αβγ; IL-8 production [1]: 3.29e-10 M; IC50 (M); hIL36β; IL-8 production [1]: 4.33e-10 M; IC50 (M); hIL36γ; IL-8 production [1]: 1.14e-10 M; Maximum inhibition rate %; hIL36α; IL-8 production [1]: 96.1%; Maximum inhibition rate %; hIL36αβγ; IL-8 production [1]: 89.6%; Maximum inhibition rate %; hIL36β; IL-8 production [1]: 84.7%; Maximum inhibition rate %; hIL36γ; IL-8 production [1]: 85.7%; Kd [2]: 0.0351 nM; koff [2]: 3.91e-06 s⁻¹; kon [2]: 111000 M⁻¹ s⁻¹

B2: hz72C1-2.2 (antibody, human IgG4 S228P, kappa)
heavy: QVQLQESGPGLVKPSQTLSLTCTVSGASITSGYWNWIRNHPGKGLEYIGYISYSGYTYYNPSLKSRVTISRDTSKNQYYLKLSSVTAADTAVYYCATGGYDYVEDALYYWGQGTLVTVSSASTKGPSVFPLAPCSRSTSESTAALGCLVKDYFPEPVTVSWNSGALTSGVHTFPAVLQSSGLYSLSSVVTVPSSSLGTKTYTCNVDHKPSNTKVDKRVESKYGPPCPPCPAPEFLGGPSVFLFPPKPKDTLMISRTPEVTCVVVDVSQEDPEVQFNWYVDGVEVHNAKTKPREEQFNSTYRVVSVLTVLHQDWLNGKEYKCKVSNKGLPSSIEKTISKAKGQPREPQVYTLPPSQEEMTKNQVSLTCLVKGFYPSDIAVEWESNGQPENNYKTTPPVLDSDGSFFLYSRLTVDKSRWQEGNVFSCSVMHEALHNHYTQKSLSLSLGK
light: DIQMTQSPSSLSASVGDRVTITCRASSNVRYMYWYQQKPGKAPKLWIYLTSNLASGVPSRFSGSGSGTSYTLTISSLQPEDFATYYCQQYTTSPYTFGQGTKLEIKRTVAAPSVFIFPPSDEQLKSGTASVVCLLNNFYPREAKVQWKVDNALQSGNSQESVTEQDSKDSTYSLSSTLTLSKADYEKHKVYACEVTHQGLSSPVTKSFNRGEC
notes: Humanized, human IgG4 / kappa
Q: For B2, which “IC50 (M); hIL36α; IL-8 production” value [1] is on record?
A: Its value is 2.45e-10 M.

Q: And the “IC50 (M); hIL36αβγ; IL-8 production” value [1]?
A: Its value is 1.49e-09 M.

Q: And the “IC50 (M); hIL36β; IL-8 production” value [1]?
A: Its value is 1.1e-09 M.

Q: And the “IC50 (M); hIL36γ; IL-8 production” value [1]?
A: The value was 1.18e-09 M.

Q: And the “Maximum inhibition rate %; hIL36α; IL-8 production” value [1]?
A: The value was 97.3%.

Q: What about the “Maximum inhibition rate %; hIL36αβγ; IL-8 production” value (from here on “Maximum inhibition rate %; hIL36αβγ”) [1] of the same binder?
A: The value was 85.3%.

Q: What about the “Maximum inhibition rate %; hIL36β; IL-8 production” value (from here on “Maximum inhibition rate %; hIL36β”) [1] of the same binder?
A: The value was 82.5%.

Q: And the “Maximum inhibition rate %; hIL36γ; IL-8 production” value (“Maximum inhibition rate %; hIL36γ” below) [1]?
A: The value was 89%.

Q: What about the Kd [2] of the same binder?
A: Its Kd is < 0.001 nM.

Q: And the koff [2]?
A: The koff was < 1e-07 s⁻¹.

Q: And the kon [2]?
A: The kon was 62400 M⁻¹ s⁻¹.

B3: hz72C1-2.1 (antibody, human IgG4 S228P, kappa)
heavy: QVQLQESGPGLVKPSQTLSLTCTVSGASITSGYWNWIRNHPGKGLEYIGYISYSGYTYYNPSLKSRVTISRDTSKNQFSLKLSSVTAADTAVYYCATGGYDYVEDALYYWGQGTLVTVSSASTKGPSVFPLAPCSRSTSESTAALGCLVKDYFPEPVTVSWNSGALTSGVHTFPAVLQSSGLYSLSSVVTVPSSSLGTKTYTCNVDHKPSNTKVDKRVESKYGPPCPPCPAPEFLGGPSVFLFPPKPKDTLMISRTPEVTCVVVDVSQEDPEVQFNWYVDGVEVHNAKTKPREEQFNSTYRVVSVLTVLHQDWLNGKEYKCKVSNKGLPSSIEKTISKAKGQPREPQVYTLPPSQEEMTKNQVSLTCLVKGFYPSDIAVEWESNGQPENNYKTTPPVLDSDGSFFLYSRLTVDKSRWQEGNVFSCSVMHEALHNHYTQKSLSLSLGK
light: DIQMTQSPSSLSASVGDRVTITCRASSNVRYMYWYQQKPGKAPKLWIYLTSNLASGVPSRFSGSGSGTSYTLTISSLQPEDFATYYCQQYTTSPYTFGQGTKLEIKRTVAAPSVFIFPPSDEQLKSGTASVVCLLNNFYPREAKVQWKVDNALQSGNSQESVTEQDSKDSTYSLSSTLTLSKADYEKHKVYACEVTHQGLSSPVTKSFNRGEC
notes: Humanized, human IgG4 / kappa
Q: What does the source list for B3?
A: IC50 (M); hIL36α; IL-8 production [1]: 1.13e-09 M; IC50 (M); hIL36αβγ; IL-8 production [1]: 1.78e-09 M; IC50 (M); hIL36β; IL-8 production [1]: 1.41e-09 M; IC50 (M); hIL36γ; IL-8 production [1]: 2.41e-10 M; Maximum inhibition rate %; hIL36α; IL-8 production [1]: 93.5%; Maximum inhibition rate %; hIL36αβγ; IL-8 production [1]: 84.6%; Maximum inhibition rate %; hIL36β; IL-8 production [1]: 82.1%; Maximum inhibition rate %; hIL36γ; IL-8 production [1]: 94.1%; Kd [2]: 0.0111 nM; koff [2]: 7.81e-07 s⁻¹; kon [2]: 70400 M⁻¹ s⁻¹

B4: hz72C1-1.1 (antibody, human IgG4 S228P, kappa)
heavy: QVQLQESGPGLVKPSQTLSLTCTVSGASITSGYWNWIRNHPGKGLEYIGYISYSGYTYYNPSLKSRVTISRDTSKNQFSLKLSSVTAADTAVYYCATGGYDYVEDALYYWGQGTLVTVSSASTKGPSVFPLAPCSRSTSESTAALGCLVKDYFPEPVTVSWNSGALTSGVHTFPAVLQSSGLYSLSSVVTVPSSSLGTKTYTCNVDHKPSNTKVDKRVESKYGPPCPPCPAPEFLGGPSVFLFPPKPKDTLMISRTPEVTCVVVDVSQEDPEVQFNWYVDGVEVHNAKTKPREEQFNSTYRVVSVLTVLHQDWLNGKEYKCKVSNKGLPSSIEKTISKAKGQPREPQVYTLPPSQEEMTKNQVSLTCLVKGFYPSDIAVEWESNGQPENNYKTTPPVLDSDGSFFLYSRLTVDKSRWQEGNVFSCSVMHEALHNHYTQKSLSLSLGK
light: DIQMTQSPSSLSASVGDRVTITCRASSNVRYMYWYQQKPGKAPKLWIYLTSNLASGVPSRFSGSGSGTSYTLTISSLQPEDFATYYCQQFTTSPYTFGQGTKLEIKRTVAAPSVFIFPPSDEQLKSGTASVVCLLNNFYPREAKVQWKVDNALQSGNSQESVTEQDSKDSTYSLSSTLTLSKADYEKHKVYACEVTHQGLSSPVTKSFNRGEC
notes: Humanized, human IgG4 / kappa; also called humanized 72C1 antibody 1.1
Q: With B4 as the binder, how does the “IC50 (M); hIL36α; IL-8 production” value [1] read?
A: Its value is 2.19e-10 M.

Q: And the “IC50 (M); hIL36αβγ; IL-8 production” value [1]?
A: The value was 3.72e-10 M.

Q: And the “IC50 (M); hIL36β; IL-8 production” value [1]?
A: The value was 3.85e-10 M.

Q: What about the “IC50 (M); hIL36γ; IL-8 production” value [1] of the same binder?
A: The value was 1.21e-10 M.

Q: And the “Maximum inhibition rate %; hIL36α; IL-8 production” value [1]?
A: Its value is 99%.

Q: What about the “Maximum inhibition rate %; hIL36αβγ” value [1] of the same binder?
A: The value was 93.7%.

Q: What about the “Maximum inhibition rate %; hIL36β” value [1] of the same binder?
A: The value was 86.7%.

Q: And the “Maximum inhibition rate %; hIL36γ” value [1]?
A: The value was 102%.

Q: What about the Kd [2] of the same binder?
A: The Kd was 0.16 nM.

Q: And the koff [2]?
A: The koff was 1.81e-05 s⁻¹.

Q: And the kon [2]?
A: Its kon is 113000 M⁻¹ s⁻¹.

B5: hz72C1-1.3 (antibody, human IgG4 S228P, kappa)
heavy: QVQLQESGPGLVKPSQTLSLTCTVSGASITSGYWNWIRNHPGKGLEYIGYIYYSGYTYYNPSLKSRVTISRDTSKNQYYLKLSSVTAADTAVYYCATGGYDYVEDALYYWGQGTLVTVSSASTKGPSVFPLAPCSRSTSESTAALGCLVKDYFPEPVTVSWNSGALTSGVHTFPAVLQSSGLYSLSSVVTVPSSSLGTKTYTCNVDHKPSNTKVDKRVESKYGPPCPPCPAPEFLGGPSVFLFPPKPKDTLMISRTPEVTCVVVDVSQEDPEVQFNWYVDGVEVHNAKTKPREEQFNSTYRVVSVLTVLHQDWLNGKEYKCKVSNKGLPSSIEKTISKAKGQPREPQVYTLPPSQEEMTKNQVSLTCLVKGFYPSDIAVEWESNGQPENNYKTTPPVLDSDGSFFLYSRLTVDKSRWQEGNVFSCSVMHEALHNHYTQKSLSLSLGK
light: DIQMTQSPSSLSASVGDRVTITCRASSNVRYMYWYQQKPGKAPKLWIYLTSNLASGVPSRFSGSGSGTSYTLTISSLQPEDFATYYCQQFTTSPYTFGQGTKLEIKRTVAAPSVFIFPPSDEQLKSGTASVVCLLNNFYPREAKVQWKVDNALQSGNSQESVTEQDSKDSTYSLSSTLTLSKADYEKHKVYACEVTHQGLSSPVTKSFNRGEC
notes: Humanized, human IgG4 / kappa
Q: What does the source list for B5?
A: IC50 (M); hIL36α; IL-8 production [1]: 7.09e-11 M; IC50 (M); hIL36αβγ; IL-8 production [1]: 3.82e-10 M; IC50 (M); hIL36β; IL-8 production [1]: 2.4e-10 M; IC50 (M); hIL36γ; IL-8 production [1]: 1.03e-10 M; Maximum inhibition rate %; hIL36α; IL-8 production [1]: 97.3%; Maximum inhibition rate %; hIL36αβγ; IL-8 production [1]: 90.3%; Maximum inhibition rate %; hIL36β; IL-8 production [1]: 90.3%; Maximum inhibition rate %; hIL36γ; IL-8 production [1]: 93.5%; Kd [2]: 0.0743 nM; koff [2]: 8.8e-06 s⁻¹; kon [2]: 119000 M⁻¹ s⁻¹

B6: hz72C1-2.3 (antibody, human IgG4 S228P, kappa)
heavy: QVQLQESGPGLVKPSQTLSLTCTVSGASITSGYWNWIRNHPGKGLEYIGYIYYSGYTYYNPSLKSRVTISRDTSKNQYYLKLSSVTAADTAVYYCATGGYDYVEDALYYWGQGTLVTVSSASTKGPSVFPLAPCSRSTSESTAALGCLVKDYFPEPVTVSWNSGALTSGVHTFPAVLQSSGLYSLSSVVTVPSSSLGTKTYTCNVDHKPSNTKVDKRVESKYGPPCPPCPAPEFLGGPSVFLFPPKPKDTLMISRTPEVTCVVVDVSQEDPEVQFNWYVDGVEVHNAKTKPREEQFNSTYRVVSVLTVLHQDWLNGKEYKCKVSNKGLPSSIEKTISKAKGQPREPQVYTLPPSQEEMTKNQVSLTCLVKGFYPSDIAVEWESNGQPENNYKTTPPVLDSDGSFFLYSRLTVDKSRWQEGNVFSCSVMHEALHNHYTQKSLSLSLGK
light: DIQMTQSPSSLSASVGDRVTITCRASSNVRYMYWYQQKPGKAPKLWIYLTSNLASGVPSRFSGSGSGTSYTLTISSLQPEDFATYYCQQYTTSPYTFGQGTKLEIKRTVAAPSVFIFPPSDEQLKSGTASVVCLLNNFYPREAKVQWKVDNALQSGNSQESVTEQDSKDSTYSLSSTLTLSKADYEKHKVYACEVTHQGLSSPVTKSFNRGEC
notes: Humanized, human IgG4 / kappa
Q: Which “IC50 (M); hIL36α; IL-8 production” value [1] does the source give for B6 here?
A: The value was 1.8e-10 M.

Q: And the “IC50 (M); hIL36αβγ; IL-8 production” value [1]?
A: The value was 4.5e-09 M.

Q: And the “IC50 (M); hIL36β; IL-8 production” value [1]?
A: The value was 2.67e-09 M.

Q: What about the “IC50 (M); hIL36γ; IL-8 production” value [1] of the same binder?
A: Its value is 5.6e-10 M.

Q: And the “Maximum inhibition rate %; hIL36α; IL-8 production” value [1]?
A: The value was 82%.

Q: What about the “Maximum inhibition rate %; hIL36αβγ” value [1] of the same binder?
A: The value was 80%.

Q: And the “Maximum inhibition rate %; hIL36β” value [1]?
A: The value was 78.3%.

Q: And the “Maximum inhibition rate %; hIL36γ” value [1]?
A: The value was 90.8%.

Q: What about the Kd [2] of the same binder?
A: Its Kd is 0.177 nM.

Q: And the koff [2]?
A: The koff was 1.12e-05 s⁻¹.

Q: And the kon [2]?
A: The kon was 63300 M⁻¹ s⁻¹.

B7: chimeric 72C1 antibody (antibody, human IgG4 S228P, kappa)
heavy: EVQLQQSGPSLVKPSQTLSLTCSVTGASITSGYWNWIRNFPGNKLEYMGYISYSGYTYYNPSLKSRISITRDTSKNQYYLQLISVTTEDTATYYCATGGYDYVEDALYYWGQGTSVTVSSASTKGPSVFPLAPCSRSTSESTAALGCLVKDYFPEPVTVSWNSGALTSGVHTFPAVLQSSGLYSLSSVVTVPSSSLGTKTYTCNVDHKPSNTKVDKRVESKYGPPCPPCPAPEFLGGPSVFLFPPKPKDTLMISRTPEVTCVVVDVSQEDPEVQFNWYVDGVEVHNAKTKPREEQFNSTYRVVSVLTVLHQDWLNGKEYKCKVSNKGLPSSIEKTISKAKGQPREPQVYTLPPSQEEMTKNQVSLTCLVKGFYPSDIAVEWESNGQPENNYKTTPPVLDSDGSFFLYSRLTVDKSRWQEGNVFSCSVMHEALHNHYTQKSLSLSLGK
light: EILLTQSPAIMSATLGEKVTMSCRASSNVRYMYWYQLKSGASPKLWIYLTSNLASGVPARFSGSGSGTSYSLTISSVEAEDAATYFCQQFTTSPYTFGGGTKLEIKRTVAAPSVFIFPPSDEQLKSGTASVVCLLNNFYPREAKVQWKVDNALQSGNSQESVTEQDSKDSTYSLSSTLTLSKADYEKHKVYACEVTHQGLSSPVTKSFNRGEC
notes: Mouse variable regions on human IgG4 / kappa; also called xi72C1
Q: How did the Kd [2] turn out when B7 was run?
A: The Kd was 0.736 nM.

Q: And the koff [2]?
A: The koff was 4.38e-05 s⁻¹.

Q: And the kon [2]?
A: The kon was 59600 M⁻¹ s⁻¹.
